Experimental findings from US20240191187A1, “MEDIA AND METHODS FOR GROWING MAMMARY ORGANOIDS” (STEMCELL TECHNOLOGIES CANADA INC., priority 2021, published 2024) are described below.

Experiment [1] concerns human mammary epithelial cells. Description: Human mammary organoid formation, brightfield microscopy. It counts as cell-based. As for the experimental part: Fragments of human mammary epithelial cells were isolated from tissue samples obtained from academic collaborators, as follows. Resected tissue samples were minced in a petri dish using a scalpel to cut in a cross-hatched pattern. The minced tissue samples were placed in a dissociation flask in standard culture medium supplemented with BSA, insulin, collagenase and hyaluronidase. The flask was gently shaken overnight on an orbital shaker placed in a 37° C. tissue incubator. The following morning the floating layer of fat was removed by pipette, and the remaining liquid was transferred to a tube and briefly centrifuged at low rpm (˜80 g for 30 seconds). The pellet (A pellet) was set aside and the supernatant was further centrifuged for an incrementally longer period of time and at an incrementally higher rpm (˜200 g for 4 minutes). The pellet (B pellet) was set aside and the supernatant was further centrifuged for a still incrementally longer period of time and at an incrementally higher rpm (˜450 g for 5 minutes).
Cryopreserved pellet A and pellet B were dissociated into a single cell suspension by treatment with 0.25% Trypsin-EDTA for 5 minutes at 37° C. (with intermittent trituration) and then centrifuged at (300 g for 5 minutes). The supernatant was discarded and the pellet was resuspended in a 100 μg/ml DNase solution for 1 minute at room temperature. […]

Experiment [2] deals with human mammary epithelial cells. Description: Human mammary organoid cell lineage balance by flow cytometry. Particulars: for cell lineage balance, BMP signaling modulators: ~50 ng/mL BMP2 or BMP4, ~25-200 ng/mL NOGGIN or ~10-100 nM LDN193189. For orientation: Flow cytometry measures light scatter and fluorescence of single cells or particles in a stream.
Experiment [3] concerns mouse mammary epithelial cells. Nature of the experiment: Mouse mammary organoid cell lineage balance by flow cytometry (EpCAM, CD49f). It counts as cell-based. Particulars: non-sorted mouse cells; ~100 ng/mL NOGGIN and ~100 ng/mL RSPO-1 together vs free of both; 8 independent experiments; 14 days (P0). As to the method:
Panels A) and B) show representative images of organoids after cells were cultured for 14 days (P0) in an R-spondin-containing (panel A) or an R-spondin-free (panel B) medium. Cells of the organoids shown in panels A) and B) were respectively analyzed by flow cytometry for expression of EpCAM and CD49f (panels C) and D)). A summary of flow cytometry data is shown in panel E. Results were confirmed in n=8 mice. Scale bars are 500 μm.
A single cell suspension of mouse mammary epithelial cells was isolated from mammary glands, as follows. A resected mammary gland was minced and placed in a tube containing standard culture medium, including 50 μg/ml gentamycin, collagenase, and hyaluronidase. The mammary gland was incubated for 2 hours at 37° C. in the tissue incubator. Following the incubation, the cell dissociation mixture was washed in advanced DMEM and centrifuged at 300 g for 5 minutes. Depending on the appearance of the pellet, in some cases it is desirable to resuspend the pellet in ammonium chloride to lyse contaminating red blood cells. Following, the pellet is resuspended in 0.25% Trypsin-EDTA, as above, for 5 minutes at 37° C. and then centrifuged at (300 g for 5 minutes). The supernatant was discarded and the pellet was resuspended in a 100 μg/ml DNase solution for 1 minute at room temperature. […]

For experiment [4], the system named is mouse mammary epithelial cells. Nature of the experiment: Mouse mammary organoid formation, organoid organization by brightfield/confocal imaging. It counts as cell-based. The note with it: for type of organoids formed from bulk (non-sorted) mammary epithelial cells: RSPO comprising media vs media free of RSPO (luminal-biased/cystic). As for the experimental part: A single cell suspension of mouse mammary epithelial cells was isolated from mammary glands, as follows. A resected mammary gland was minced and placed in a tube containing standard culture medium, including 50 μg/ml gentamycin, collagenase, and hyaluronidase. The mammary gland was incubated for 2 hours at 37° C. in the tissue incubator. Following the incubation, the cell dissociation mixture was washed in advanced DMEM and centrifuged at 300 g for 5 minutes. Depending on the appearance of the pellet, in some cases it is desirable to resuspend the pellet in ammonium chloride to lyse contaminating red blood cells. Following, the pellet is resuspended in 0.25% Trypsin-EDTA, as above, for 5 minutes at 37° C. and then centrifuged at (300 g for 5 minutes). The supernatant was discarded and the pellet was resuspended in a 100 μg/ml DNase solution for 1 minute at room temperature. The resulting cells were passed through a 37 μm strainer to obtain the single cell suspension.
Each well received between 0.5-1 mL of any one of the various culture media described herein.
The plated single cell suspension of mammary epithelial cells formed into organoids that were passaged approximately every 7-days, with 2-3 full medium changes during such 7-day period. To passage the organoids, the Matrigel domes were broken apart by pipetting in pre-warmed 0.25% Trypsin-EDTA, incubating at 37° C. for ˜ 5-15 minutes and pipetting again. The trypsinization reaction was inactivated by washing in an equal volume of Hanks Balanced Salt Solution supplemented with 2% FBS. Depending on the density and size of organoids a 1:2-1:5 split was performed, with the cells seeded as domes, as described above. Alternatively, cells would be strained through a 37 μm strainer to obtain the single cell suspension and seeded in Matrigel domes as described above.
Single cell suspensions of mouse mammary epithelial cells were obtained in accordance with Example 1. The single cell suspension was sorted using a BD FACSAria™ Fusion flow cytometer into three populations of cells corresponding to the ER^+, milk, and basal cell lineages, based on the differential expression of EpCAM, CD49f, and CD49b. Non-epithelial cells were further eliminated during the sorting strategy based on the expression of CD45, Ter119 and CD31. The sorted cells were seeded and cultured essentially as described in Example 2 in an organoid medium free of an exogenously-added inhibitor of BMP signaling and either comprising exogenously added RSPO-1 (˜100 ng/mL) or lacking exogenously added RSPO-1 (e.g. MammoCult™ Mouse Organoid Growth Medium, […] Technologies) (FIG. 2).
Organoid media were formulated to lack either exogenously added RSPO-1 or RSPO-3, and they were tested on single cell suspensions of bulk mammary epithelial cells, obtained in accordance with Example 1 and seeded and cultured as described in Example 2. […] Flow cytometry analysis of the cellular composition of organoids formed in either RSPO-comprising media or media lacking RSPO confirmed a reduction in the number of basal cells among organoids formed in the absence of WNT agonism (FIG. 3B).
In a follow-up experiment, organoids were formed from single cell suspensions obtained in accordance with Example 1, and seeded and cultured as described in Example 2. […] At the end of the second passage the formed organoids were processed and stained for K8, K14, and DAPI, as described in Example 3.
The foregoing experiments were performed in a medium that included an inhibitor of BMP signaling, thus the effect of BMP signaling inhibition on the formation of mouse mammary organoids was explored.

Experiment [5] has as its system human mammary epithelial cells. Description: Total cell count among formed human mammary organoids. Type of experiment: cell-based.
Method: Cryopreserved pellet A and pellet B were dissociated into a single cell suspension by treatment with 0.25% Trypsin-EDTA for 5 minutes at 37° C. (with intermittent trituration) and then centrifuged at (300 g for 5 minutes). The supernatant was discarded and the pellet was resuspended in a 100 μg/ml DNase solution for 1 minute at room temperature. The resulting cells were passed through a 37 μm strainer to obtain the single cell suspension.
Each well received between 0.5-1 mL of any one of the various culture media described herein. […]
The effects of modulating signaling through BMP were analyzed across multiple experiments in terms of total cell count among formed organoids (FIG. 9A) and the lineage balance of the cells among formed organoids (FIG. 9B).
The effects of modulating signaling through an ERBB receptor family member were analyzed across multiple experiments in terms of total cell count among formed organoids (FIG. 13A) and the lineage balance of the cells among formed organoids (FIG. 13B).

B1: NOGGIN: protein inhibitor of BMP signaling (protein, UniProt Q13253 28-232, looked up)
Noggin: QHYLHIRPAPSDNLPLVDLIEHPDPIFDPKEKDLNETLLRSLLGGHYDPGFMATSPPEDRPGGGGGAAGGAEDLAELDQLLRQRPSGAMPSEIKGLEFSEGLAQGKKQRLSKKLRRKLQMWLWSQTFCPVLYAWNDLGSRFWPRYVKVGSCFSKRSCSVPEGMVCKPSKSVHLTVLRWRCQRRGGQRCGWIPIQYPIISECKCSC
In the case of B1, the “formation of luminal organoids, single vs dual BMP signaling inhibitor” value in experiment [1] (media comprising NOGGIN or LDN193189 alone vs both, successive passages) is listed as “appeared sufficient to bias formation of luminal organoids”. Moreover, the “cell lineage balance, BMP signaling modulators” value in experiment [2] (just prior to first passage) is reported as “decreased the number of basal cells while increasing the number of luminal cells”. Moreover, in experiment [3], the “lineage balance in medium free of NOGGIN and RSPO-1 vs medium comprising both” value is on record as “a significant reduction of basal cells with a concomitant increase in luminal cells”.

B2: TGFβ3: ligand of a TGFβ receptor (protein, UniProt P10600 301-412, looked up)
Transforming growth factor …: ALDTNYCFRNLEENCCVRPLYIDFRQDLGWKWVHEPKGYYANFCSGPCPYLRSADTTHSTVLGLYNTLNPEASASPCCVPQDLEPLTILYYVGRTPKVEQLSNMVVKSCKCS
Turning to B2, in experiment [2] (~50 ng/mL, just prior to first passage), the “cell lineage balance, TGFβ receptor ligands” value is reported as “results consistent with TGF β1”.

B3: RSPO-1: WNT signaling agonist, an R-spondin (protein, UniProt Q2MKA7 21-263, looked up)
R-spondin-1: SRGIKGKRQRRISAEGSQACAKGCELCSEVNGCLKCSPKLFILLERNDIRQVGVCLPSCPPGYFDARNPDMNKCIKCKIEHCEACFSHNFCTKCKEGLYLHKGRCYPACPEGSSAANGTMECSSPAQCEMSEWSPWGPCSKKQQLCGFRRGSEERTRRVLHAPVGDHAACSDTKETRRCTVRRVPCPEGQKRRKGGQGRRENANRNLARKESKEAGAGSRRRKGQQQQQQQGTVGPLTSAGPA
For the molecule B3, the “luminal-biased organoids with vs without exogenously-added RSPO-1” value in experiment [1] (luminal-promoting organoid medium, ~20-200 ng/mL RSPO-1) is “did not reveal a significant increase or reduction of luminal-biased organoids”. Besides, the “organization of organoids formed in the absence of RSPO-1 over three successive passages” value in experiment [4] (non-sorted mouse cells, P0-P2, absence vs presence of RSPO-1, medium included BMP signaling inhibitor) is “cystic organization devoid of branching”. For the same molecule, in experiment [4] (non-sorted mouse cells), the “type of organoids formed from bulk (non-sorted) mammary epithelial cells” value is listed as “yielded a significant number of mixed organoids”. Besides, the “organoid formation from sorted ER+ lineage cells” value in experiment [4] (sorted mouse ER+ luminal cells, medium with ~100 ng/mL RSPO-1 vs lacking RSPO-1, no BMP signaling inhibitor) was “generally the same efficiency in either of the tested medium formulations”. Also, in experiment [4] (sorted mouse basal lineage cells, RSPO-1 (~100 ng/mL) containing medium vs RSPO-1 deficient), the “organoid organization from sorted basal lineage cells” value was “a predominately mixed organization”. In addition, in experiment [4] (sorted mouse milk lineage cells, RSPO-1 (~100 ng/mL) containing medium vs RSPO-1 deficient (cystic)), the “organoid organization from sorted milk lineage cells” value was “a more mixed organization of basal, luminal and other cells”. Moreover, the “lineage balance in medium free of NOGGIN and RSPO-1 vs medium comprising both” value in experiment [3] is on record as “a significant reduction of basal cells with a concomitant increase in luminal cells”.

B4: amphiregulin (protein, UniProt P15514 101-187, looked up)
Amphiregulin: SVRVEQVVKPPQNKTESENTSDKPKRKKKGGKNGKNRRNRKKKNPCNAEFQNFCIHGECKYIEHLEAVTCKCQQEYFGERCGEKSMK
notes: ligand of ERBB1
Take B4: in experiment [2] (just prior to first passage, ~10-50 ng/mL AREG, ~10-50 ng/mL EGF, ~50-100 ng/mL NRG1), the “cell lineage balance, ERBB receptor family ligands” value is “a minor or no effect on cell lineage balance”. Besides, the “cell lineage balance across multiple experiments, ERBB ligands” value in experiment [2] (normalized to control lacking ERBB modulators, mean of 2 experiments) is reported as “minimal impact on luminal cell percentages but profound impact on increasing basal cell percentages”. Moreover, the “total cell count among formed organoids, ERBB modulators” value in experiment [5] (vs control with no modulation of ERBB signaling) is on record as “highest mitogenic activity”.

B5: RSPO-3: WNT agonist, an R-spondin (protein, UniProt Q9BXY4 22-272, looked up)
R-spondin-3: QNASRGRRQRRMHPNVSQGCQGGCATCSDYNGCLSCKPRLFFALERIGMKQIGVCLSSCPSGYYGTRYPDINKCTKCKADCDTCFNKNFCTKCKSGFYLHLGKCLDNCPEGLEANNHTMECVSIVHCEVSEWNPWSPCTKKGKTCGFKRGTETRVREIIQHPSAKGNLCPPTNETRKCTVQRKKCQKGERGKKGRERKRKKPNKGESKEAIPDSKSLESSKEIPEQRENKQQQKKRKVQDKQKSVSVSTVH
As to B5, the “type of organoids formed from bulk (non-sorted) mammary epithelial cells” value in experiment [4] (non-sorted mouse cells) is listed as “yielded a significant number of mixed organoids”.

B6: BMP4: BMP signaling activator (protein, UniProt P12644 293-408, looked up)
Bone morphogenetic protein 4: SPKHHSQRARKKNKNCRRHSLYVDFSDVGWNDWIVAPPGYQAFYCHGDCPFPLADHLNSTNHAIVQTLVNSVNSSIPKACCVPTELSAISMLYLDEYDKVVLKNYQEMVVEGCGCR
In the case of B6, the “cell lineage balance, BMP signaling modulators” value in experiment [2] (just prior to first passage) is “significant increase in basal cells and reduction in luminal cells”. The “total cell count among formed organoids, BMP signaling modulators” value in experiment [5] (vs condition where BMP signaling not modulated or inhibited) was “a marked net loss of total cells”.
